± gives the uncertainty stated by the source.
Assay: amyloid nucleation score (Sup35N fusion, yeast selection) (log enrichment); library NNK1; higher = more nucleation; inactive = no reads after selection
Procedure, shortened: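 Libraries of peptides of 20 random codons fused to Sup35N were expressed in psi-negative yeast and induced 24 hours with 100 μM copper sulfate. Selection was 7 days at 30°C on medium lacking adenine and uracil, and plasmid inserts were Illumina-sequenced before and after selection. Nucleation score is the DiMSum log enrichment of output over input reads, centred on the mode score of non-aggregating sequences, and sequences with under 100 input reads were left out.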

| Substance | amyloid nucleation score |
| --- | --- |
| IELSILSGRRDL | -0.406 ± 0.2 |
| NVLVQGFG | -0.017 ± 0.66 |
| IRDMFVSGSQFFLKHMLSRG | 0.436 ± 0.78 |
| GSALPSIWSWERFRSLLRNL | -0.221 ± 0.45 |
| SWPMTIQYGDSIWNWKMSVM | 0.388 ± 0.58 |
| PHYFFS | -0.593 ± 0.39 |
| LSWCLPCLSARSVRSRRMVT | 0.161 ± 0.25 |
| ITKGAPSLYYMCRRGEDACS | 0.523 ± 0.44 |
| QCVGPSVCVFVHRLVGCYRA | 3.34 ± 0.098 |
| GTMVSLKTGFKDTSRLLNWS | -0.748 ± 0.41 |
| RSCLDGSRVMVSWR | 0.305 ± 0.46 |
| FLSSCSMFMGRPWFSCYRVR | -1.02 ± 2.4 |
| WTNSRHC | 0.636 ± 0.38 |
| VIVARQFISPSVYGDAMDHS | 1.15 ± 0.97 |
| LMVFAIRDLNFRHTILQPVP | -0.081 ± 0.42 |
| FLLCVSHLELSY | 0.968 ± 0.49 |
| MLVYYNDKSVFHRFVLLRN | 0.644 ± 0.85 |
| INELNTLLGI | 0.498 ± 0.97 |
| KSAASILCTMNVSYRSNFLE | 1.08 ± 0.37 |
| NGWPWGERSALRMG | -0.573 ± 0.95 |
| EPLISCILCKLEGWIPYHI | -0.493 ± 0.56 |
| RSRSGC | 0.441 ± 0.51 |

| Substance | amyloid nucleation score |
| --- | --- |
| NPMLLPSEPSS | -0.181 ± 0.42 |
| RVFLMCCVGEMLRMLQLSSD | 6.46 ± 0.073 |
| GAPEVPIDYGLEASRNCSKG | -0.61 ± 1.4 |
| VIVVVPLFGGRLCRVVRHR | 0.278 ± 0.62 |
| FFKLKHGNTDRSYIYYVGCA | -0.01 ± 0.21 |
| SVLDFNNYMEIVAQVKGEDP | inactive |
| RATQLF | 1.81 ± 0.67 |
| ISNGFQSV | -0.027 ± 0.81 |
| IFNSNLLLTATRGDSVIWPY | 3.26 ± 0.14 |
| RVGYIYHYYLDNQG | -0.175 ± 0.38 |
| FPLGSFIDLQRDMGIN | 0.53 ± 0.4 |
| LWHFWGYGGALP | -0.738 ± 0.75 |
| DSWIQHGGCEFVLIVRRHFI | 0.714 ± 0.97 |
| SSVARIIWKFCRFSTVGVCF | 0.858 ± 0.59 |
| MVMMFTTDSMQAN | 0.906 ± 0.52 |
| GPTCDLRFAFNPHVTYGGHG | 1.29 ± 0.64 |
| DSDLRLNLCELTFVPWRRSG | 2.86 ± 0.19 |
| RRHWTVMVMNIPVGMFIVIR | 0.155 ± 0.27 |
| TNVNF | -1.24 ± 0.74 |
| RCYFAWPEWLGYGCVVMERG | -0.435 ± 0.52 |
| WFYKLSSLFYNPLCL | -1.13 ± 0.41 |
| TFNLVLGLSWNPDMFGDKGV | 1.2 ± 0.41 |

| Substance | amyloid nucleation score |
| --- | --- |
| SYYHRFSRIGMRSLGQEQCY | inactive |
| MDCWENVIRQKASSSGWLEN | -0.725 ± 0.52 |
| ENFLTNYFYSVVTVI | -1.51 ± 1.2 |
| TSKSTLYSECVMWPVDPEPT | 0.273 ± 0.58 |
| GSGVGKLCGLCSPG | 0.274 ± 0.69 |
| VHRIYKCALRVSRADSLIVT | inactive |
| TVIGSSRGAPLIIKSGFIIE | 4.25 ± 0.056 |
| PFMLRSNGQWTSYINCIFIS | 7.865 ± 0.068 |
| DGSGGPYIGILLWGLAKMSG | -0.488 ± 0.85 |
| KRTAHRMVRSCSLWKVRYRQ | 0.462 ± 1.2 |
| ISDCRFILMYSYGHLCAGVR | 0.513 ± 0.45 |
| FEQTIISLVSGYFQSSDYWS | -0.596 ± 0.78 |
| DGRKG | 1.26 ± 0.66 |
| RKSEGIDVCGYNISAIYFKC | 0.142 ± 0.64 |
| RFMKPTMVWL | 0.005 ± 1.4 |
| AAVGALGKSRSL | 1.17 ± 0.73 |
| RVMLKSDRFYYVLKTCAY | 1 ± 0.37 |
| EGSPKICPRYST | 0.088 ± 0.6 |
| CVFYASTYVIPYNCENNFTI | 0.952 ± 0.26 |
| HSPCMPLTCSQTWHSLDLPF | -0.304 ± 0.55 |

Reference: the supplement of paper PMC12042874
